What was measured:
[1] = target: T1, cynomolgus monkey serum albumin (cynomolgus monkey, UniProt A2V9Z4 25-608); test: ELISA, soluble Fab, antigen coated at 5 µg/ml
T1 construct: also called cynomolgus monkey SA; monkey SA

rabbit serum albumin = target: T2, rabbit serum albumin (rabbit, UniProt P49065 25-608); test: ELISA, soluble Fab, antigen coated at 5 µg/ml
T2 construct: also called rabbit SA

[2] = target: T3, epidermal growth factor receptor (UniProt P00533 25-645); test: ELISA, soluble Fab, antigen coated at 5 µg/ml
T3 construct: also called EGFR

[3] = target: T4, epithelial cell adhesion molecule (UniProt P16422 24-265); test: ELISA, soluble Fab, antigen coated at 5 µg/ml
T4 construct: also called EpCAM
T4 sequence (looked up): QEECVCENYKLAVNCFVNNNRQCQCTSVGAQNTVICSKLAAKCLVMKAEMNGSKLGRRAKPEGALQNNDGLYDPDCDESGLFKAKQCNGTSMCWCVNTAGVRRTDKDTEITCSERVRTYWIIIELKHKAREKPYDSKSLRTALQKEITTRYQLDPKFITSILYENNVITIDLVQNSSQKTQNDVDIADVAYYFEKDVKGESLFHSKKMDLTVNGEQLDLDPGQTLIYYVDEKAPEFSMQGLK

IL-15 receptor a = target: T5, IL-15 receptor a (UniProt Q13261 31-205); test: ELISA, soluble Fab, antigen coated at 5 µg/ml
T5 construct: also called IL-15Ra
T5 sequence (Q13261 31-205 limits assumed): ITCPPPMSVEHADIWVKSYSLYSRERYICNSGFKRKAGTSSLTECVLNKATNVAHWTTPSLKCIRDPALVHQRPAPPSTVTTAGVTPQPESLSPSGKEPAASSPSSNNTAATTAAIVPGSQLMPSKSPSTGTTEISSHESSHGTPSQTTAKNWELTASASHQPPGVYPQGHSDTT

IL-1b = target: T6, IL-1b (UniProt P01584 117-269, limits assumed); test: ELISA, soluble Fab, antigen coated at 5 µg/ml
T6 construct: The identity is uncertain because the two printings differ

CD16a = CD16a (UniProt P08637 17-208); test: ELISA, soluble Fab, antigen coated at 5 µg/ml
Sequence of CD16a (P08637 17-208 limits assumed): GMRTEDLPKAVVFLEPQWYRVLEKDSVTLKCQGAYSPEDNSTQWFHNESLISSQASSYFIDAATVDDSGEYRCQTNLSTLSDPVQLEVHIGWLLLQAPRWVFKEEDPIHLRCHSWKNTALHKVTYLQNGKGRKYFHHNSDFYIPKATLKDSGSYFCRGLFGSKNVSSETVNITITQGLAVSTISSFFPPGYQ

c-MET = c-MET (UniProt P08581 25-932, limits assumed); test: ELISA, soluble Fab, antigen coated at 5 µg/ml
Sequence of c-MET (P08581 25-932 limits assumed): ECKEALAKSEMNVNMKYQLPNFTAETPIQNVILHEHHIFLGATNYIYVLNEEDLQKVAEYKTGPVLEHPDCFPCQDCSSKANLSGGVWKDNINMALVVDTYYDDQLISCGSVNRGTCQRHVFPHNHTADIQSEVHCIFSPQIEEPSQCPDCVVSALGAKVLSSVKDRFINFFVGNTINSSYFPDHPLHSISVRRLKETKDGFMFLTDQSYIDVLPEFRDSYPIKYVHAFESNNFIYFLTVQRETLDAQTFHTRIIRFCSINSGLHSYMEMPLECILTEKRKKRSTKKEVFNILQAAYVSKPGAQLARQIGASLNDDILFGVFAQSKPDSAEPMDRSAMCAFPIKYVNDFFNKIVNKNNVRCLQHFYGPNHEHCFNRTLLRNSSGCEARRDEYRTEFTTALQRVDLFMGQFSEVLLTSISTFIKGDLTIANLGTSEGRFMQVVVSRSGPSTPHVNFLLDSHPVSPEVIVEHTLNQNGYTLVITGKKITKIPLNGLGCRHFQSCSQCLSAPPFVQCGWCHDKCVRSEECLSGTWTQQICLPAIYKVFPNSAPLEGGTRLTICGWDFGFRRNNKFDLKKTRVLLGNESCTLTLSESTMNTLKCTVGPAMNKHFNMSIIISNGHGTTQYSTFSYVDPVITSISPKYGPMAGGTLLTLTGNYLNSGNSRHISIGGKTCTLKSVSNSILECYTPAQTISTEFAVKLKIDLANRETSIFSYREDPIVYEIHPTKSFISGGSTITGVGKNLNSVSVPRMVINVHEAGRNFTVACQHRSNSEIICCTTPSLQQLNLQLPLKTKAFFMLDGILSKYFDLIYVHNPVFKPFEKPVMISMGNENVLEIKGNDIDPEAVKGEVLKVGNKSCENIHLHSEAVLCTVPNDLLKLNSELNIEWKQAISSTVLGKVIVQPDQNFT

human serum albumin = target: T7, human serum albumin (human, UniProt P02768 25-609); test: biolayer interferometry (Octet RED), SL335 on AR2G biosensor, HSA in solution, pH 6.0
T7 construct: Bought protein; also called HSA; human SA
Experimental: Real-time binding assays between the purified SL335 and the antigens (human SA, rat SA or mouse SA) were performed using biolayer interferometry with an Octet RED system (ForteBio, Menlo park, Calif., USA) as previously described except that AR2G (Amine Reactive Second-Generation) sensors were used (Costin et al., (2013) J Virol. 87, 52-66). Briefly, the predetermined concentration of SL335 was coupled to kinetics grade AR2G biosensors, and unbound Fab fragments were removed from the surfaces of the sensors by incubating in the kinetics buffer […]. […] The binding and dissociation kinetics were calculated using the Octet QK software package, which fit the observed binding curves to a 1:1 binding model to calculate the association rate constants. The association and dissociation rate constants were calculated using at least three different concentrations of human SA, rat SA or mouse SA. The equilibrium dissociation constants were calculated as the kinetic dissociation rate constant divided by the kinetic association rate constant.
Since SL335 was the best binder among four anti-human SA Fab clones, its cross-reactivity was further analyzed by ELISA. […] The binding affinities of SL335 to human SA, rat SA and mouse SA at pH 6 or pH 7.4 were further measured via biolayer interferometry by passing through different concentration of the antigens on biosensors that were coated with SL335 (see Table 6 below).

T1 sequence (A2V9Z4 25-608 limits assumed): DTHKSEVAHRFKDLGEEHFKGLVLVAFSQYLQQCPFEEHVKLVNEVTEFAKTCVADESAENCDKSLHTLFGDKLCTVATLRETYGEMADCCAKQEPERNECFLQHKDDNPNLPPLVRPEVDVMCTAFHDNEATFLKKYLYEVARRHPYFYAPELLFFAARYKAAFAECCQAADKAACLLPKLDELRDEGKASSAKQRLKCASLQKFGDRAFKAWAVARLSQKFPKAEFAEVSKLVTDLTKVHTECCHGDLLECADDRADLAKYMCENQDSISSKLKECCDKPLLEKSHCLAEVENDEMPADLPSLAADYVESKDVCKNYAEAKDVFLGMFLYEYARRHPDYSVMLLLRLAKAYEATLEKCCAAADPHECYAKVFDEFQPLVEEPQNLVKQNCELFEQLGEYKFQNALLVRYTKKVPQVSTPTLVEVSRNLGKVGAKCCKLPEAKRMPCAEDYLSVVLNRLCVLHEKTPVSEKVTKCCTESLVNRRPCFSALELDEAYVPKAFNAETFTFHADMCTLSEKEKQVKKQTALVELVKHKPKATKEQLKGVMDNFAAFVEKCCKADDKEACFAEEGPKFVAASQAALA
T2 sequence (P49065 25-608 limits assumed): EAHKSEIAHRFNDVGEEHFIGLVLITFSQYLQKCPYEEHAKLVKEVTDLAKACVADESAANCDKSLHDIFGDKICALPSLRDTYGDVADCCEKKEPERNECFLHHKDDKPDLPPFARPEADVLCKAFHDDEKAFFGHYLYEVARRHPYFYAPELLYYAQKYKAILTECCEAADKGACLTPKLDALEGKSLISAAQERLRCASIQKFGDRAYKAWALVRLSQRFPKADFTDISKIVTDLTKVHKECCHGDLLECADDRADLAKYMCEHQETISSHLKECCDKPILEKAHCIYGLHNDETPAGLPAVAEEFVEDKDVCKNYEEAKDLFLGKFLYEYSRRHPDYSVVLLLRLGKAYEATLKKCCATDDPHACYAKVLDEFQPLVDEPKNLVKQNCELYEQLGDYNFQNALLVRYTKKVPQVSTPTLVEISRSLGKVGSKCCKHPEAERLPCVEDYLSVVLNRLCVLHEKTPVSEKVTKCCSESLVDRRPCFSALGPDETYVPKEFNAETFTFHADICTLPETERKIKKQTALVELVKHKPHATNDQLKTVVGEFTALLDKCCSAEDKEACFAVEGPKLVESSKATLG

B1: SL335 (Fab, V domains shown)
VH: QVQLVQSGGGPVKPGGSLRLSCAASGFMFRAYSMNWVRQAPGKGLEWVSSISSSGRYIHYADSVKGRFTISRDNAKNSLYLQMNSLRAEDTAVYYCARETVMAGKALDYWGQGTLVTVSS
VL: ELVLTQSPGTLSLSPGETATLSCRASQSVGSNLAWYQQKPGQAPRLLIYGASTGATGVPARFSGSRSGTDFTLTITSLQPEDFATYYCQQYYSFLAKTFGQGTQLEIKR
notes: Human anti-serum albumin Fab in the classic form (VH+CH1 with Cys233, VL+CLk with Cys214); tested on phage and as soluble Fab purified from E. coli; also called SL335wt; SL335 Fab
Q: Does B1 bind [1]?
A: binds

Q: Does B1 bind (rabbit serum albumin)?
A: no binding

Q: Does B1 bind [2]?
A: no binding

Q: Does B1 bind [3]?
A: no binding

Q: Does B1 bind (IL-15 receptor a)?
A: no binding

Q: Does B1 bind (IL-1b)?
A: no binding

Q: Does B1 bind (CD16a)?
A: no binding

Q: Does B1 bind (c-MET)?
A: no binding

Q: What about the Kd (human serum albumin) of the same binder?
A: 8.68 nM

Q: What about the koff (human serum albumin) of the same binder?
A: 0.00155 s⁻¹

Q: What about the kon (human serum albumin) of the same binder?
A: 179000 M⁻¹ s⁻¹

Reference: patent US20180030127A1 (APRILBIO, published 2018)
